This note sets out measurements from patent publication US20240400657A1 (MorphoSys, published 2024).

Positions count from the first letter of the chain named.

In experiment [1] the target is T1, engineered version of human C5aR expressed on CHO cells of the PathHunter β-arrestin assay (DiscoveRx) (human, UniProt P21730 1-350).
T1 sequence (looked up): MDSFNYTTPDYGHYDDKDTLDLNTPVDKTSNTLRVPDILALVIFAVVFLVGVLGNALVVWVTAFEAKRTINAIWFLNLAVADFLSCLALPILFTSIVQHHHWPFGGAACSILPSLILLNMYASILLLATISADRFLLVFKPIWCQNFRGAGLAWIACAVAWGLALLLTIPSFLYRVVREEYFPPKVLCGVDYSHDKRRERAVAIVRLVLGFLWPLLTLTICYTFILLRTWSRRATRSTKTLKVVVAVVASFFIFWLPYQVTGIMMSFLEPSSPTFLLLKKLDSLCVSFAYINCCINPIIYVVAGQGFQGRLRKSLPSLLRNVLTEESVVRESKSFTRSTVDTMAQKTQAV
Nature of the experiment: cell-based or functional assay.

Experiment [2] deals with T2, full length human C5aR stably expressed on CHO Flp-In cells (human, UniProt P21730 1-350).
T2 construct: also called human C5aR expressed on CHO cells
T2 sequence: T1 sequence (looked up)
Nature of the experiment: FACS on Flp-In CHO cells, IgG titration.
Procedure: (§1) The C5aR-CHO Flp-In™ cell lines were blocked and IgGs were added either in serial dilutions or at a single (high) concentration of 300 nM. For detection of IgG binding, an R-phycoerythrin (R-PE) conjugated anti-human IgG (Fc-gamma fragment specific)2 antibody was added and fluorescence was measured using the FACS Array or Novocyte device.

For experiment [3], the target named is T3, full length cynomolgus C5aR stably expressed on CHO Flp-In cells (cynomolgus monkey (Macaca fascicularis)).
T3 chain: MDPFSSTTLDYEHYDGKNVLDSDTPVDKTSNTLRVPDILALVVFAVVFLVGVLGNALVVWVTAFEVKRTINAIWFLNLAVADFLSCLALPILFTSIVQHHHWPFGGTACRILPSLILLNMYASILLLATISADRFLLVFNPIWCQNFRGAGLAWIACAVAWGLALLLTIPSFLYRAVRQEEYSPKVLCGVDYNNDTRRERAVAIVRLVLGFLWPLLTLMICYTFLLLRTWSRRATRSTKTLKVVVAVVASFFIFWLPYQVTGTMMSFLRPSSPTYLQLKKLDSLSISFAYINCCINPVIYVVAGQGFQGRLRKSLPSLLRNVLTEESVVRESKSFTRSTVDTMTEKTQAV
Put plainly: FACS on Flp-In CHO cells, IgG titration.
Procedure: as §1

Experiment [4] has as its target T4, C5aR expressed on purified human neutrophils (human, UniProt P21730 1-350).
T4 construct: whole, on cells; Used here for all assays on primary human cells (purified neutrophils, granulocytes and monocytes in whole blood, monocyte-derived macrophages); also called human C5aR expressed endogenously; C5aR on human granulocytes, monocytes and macrophages
T4 sequence (looked up): T1 sequence (looked up)
Put plainly: FACS on purified human neutrophils, IgG titration.
Procedure: Neutrophils were purified from EDTA-whole blood samples using a MACSexpress® Neutrophil Isolation Cocktail from Miltenyi Biotec. Briefly, using this kit, cells are isolated using magnetic labeling and negative magnetic separation. […] Measurements were done at the FACS Array device. FACS data were evaluated using FlowJo™, entered into GraphPad® Prism (v4.0) and fitted to the sigmoidal dose-response curve using non-linear regression to calculate the EC50.

Experiment [5] addresses T5, Human FcγRIIIa (1-193)-(158V)-HIS6 (human, UniProt P08637 17-193).
T5 construct: Extracellular region with C-terminal 6xHis tag; UniProt P08637 printed
Put plainly: BLI (Octet), IgG captured on Protein A sensors, FcγR titrated. In general terms: In BLI a coated tip is dipped into the sample, and binding shifts an interference pattern.
Procedure: 2.0 nm of IgGs diluted in Octet assay buffer (PBS, 0.05% (v/v) Tween-20, 0.1% (w/v) BSA) were captured on Protein A sensors (FortéBIO, Pall Life Sciences). Kinetic measurements were performed using 7 concentrations of Fc gamma receptors (2n serial dilution) in assay buffer. […] All sensorgrams were fitted using Data Analysis Software 10.0, (FortéBIO, Pall Life Sciences) to determine kₒₙ and koff rate constants, which were used to calculate KD. The raw data was fitted with a 1:1 binding model, with parameter Rₘₐₓ set to local.

Experiment [6] concerns the target T6, full length rat C5aR stably expressed on CHO Flp-In cells (rat (Rattus norvegicus), UniProt P97520 1-352).
T6 sequence: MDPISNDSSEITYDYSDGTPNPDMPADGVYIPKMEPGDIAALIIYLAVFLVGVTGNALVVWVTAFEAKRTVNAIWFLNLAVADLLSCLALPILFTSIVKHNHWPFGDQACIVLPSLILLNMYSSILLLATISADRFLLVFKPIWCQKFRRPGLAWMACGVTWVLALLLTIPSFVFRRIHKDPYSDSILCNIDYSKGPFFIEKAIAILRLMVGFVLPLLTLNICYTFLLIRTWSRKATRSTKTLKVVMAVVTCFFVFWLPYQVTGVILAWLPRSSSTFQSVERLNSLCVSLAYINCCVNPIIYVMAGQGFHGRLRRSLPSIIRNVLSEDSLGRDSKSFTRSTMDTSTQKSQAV
Nature of the experiment: FACS, CHO Flp-In cells expressing rat C5aR, single IgG concentration. A general note: Flow cytometry measures light scatter and fluorescence of single cells or particles in a stream.

Experiment [7] addresses T7, full-length human C5L2 expressed on CHO Flp-In cells (human, UniProt Q9P296 1-337).
T7 construct: also called C5a anaphylatoxin chemotactic receptor 2
Put plainly: FACS, CHO Flp-In cells expressing human C5L2, single IgG concentration.

Experiment [8] concerns the target T8, full-length human FPR1 expressed on CHO Flp-In cells (human, UniProt P21462 1-350).
T8 construct: also called fMet-Leu-Phe receptor
T8 chain: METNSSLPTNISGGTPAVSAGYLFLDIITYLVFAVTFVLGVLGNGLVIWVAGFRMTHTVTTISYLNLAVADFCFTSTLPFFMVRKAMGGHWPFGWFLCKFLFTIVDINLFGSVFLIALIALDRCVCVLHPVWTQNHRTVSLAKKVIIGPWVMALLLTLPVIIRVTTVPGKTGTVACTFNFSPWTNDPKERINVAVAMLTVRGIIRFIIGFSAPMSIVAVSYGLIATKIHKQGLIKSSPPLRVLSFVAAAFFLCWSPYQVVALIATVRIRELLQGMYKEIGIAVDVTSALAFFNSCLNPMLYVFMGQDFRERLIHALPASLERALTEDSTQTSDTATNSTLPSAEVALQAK
Put plainly: FACS, CHO Flp-In cells expressing human FPR1, single IgG concentration.

The target in experiment [9] is T9, human C5aR_NT-bio peptide (human, biotin tag (position not given)).
T9 construct: Chemically synthesized linear peptide (Genscript); also called human C5aR N-terminal peptide; human C5aR peptide
T9 peptide: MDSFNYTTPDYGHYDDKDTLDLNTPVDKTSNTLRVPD
Nature of the experiment: SPR (Biacore T200), IgG captured on anti-human-Fc, peptide as analyte, 1:1 fit, monovalent.

Experiment [10] addresses T10, cynomolgus C5aR_NT-bio peptide (cynomolgus monkey, biotin tag (position not given)).
T10 construct: Chemically synthesized linear peptide (Genscript); also called cynomolgus C5aR N-terminal peptide; cynomolgus C5aR peptide
T10 peptide: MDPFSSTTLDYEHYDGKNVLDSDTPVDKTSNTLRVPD
Put plainly: BLI (Octet HTX), biotinylated peptide on SA sensors, IgG as analyte, 1:1 fit, apparent (bivalent); fast koff.

Experiment [11] has as its target T11, Human FcRn p51 [1-297]/AviHis/p14 biotinylated (human, UniProt P55899 24-298; P16213 21-119).
T11 construct: Heterodimer of two polypeptides; UniProt P55899 (p51), P61769 (p14) printed
Put plainly: BLI (Octet HTX), biotinylated FcRn on SA sensors, IgG titrated, steady state fit, apparent KD, pH 6.0; * deviation from fit model; pH 6.0.
Source text: 0.5 nm of biotinylated human, cynomolgus, mouse and rat FcRn were captured on streptavidin (SA) sensors (FortéBIO, Pall Life Sciences). […] All sensorgrams were fitted using Data Analysis Software 10.0 (FortéBIO, Pall Life Sciences) to determine the apparent affinity and the data was fitted with a steady state model.

For orientation: EC50 means the midpoint of the concentration-response curve. By koff is commonly meant the rate constant with which the complex falls apart. Usually kon stands for a measure of how fast the partners come together.

T7 sequence (Q9P296 whole entry): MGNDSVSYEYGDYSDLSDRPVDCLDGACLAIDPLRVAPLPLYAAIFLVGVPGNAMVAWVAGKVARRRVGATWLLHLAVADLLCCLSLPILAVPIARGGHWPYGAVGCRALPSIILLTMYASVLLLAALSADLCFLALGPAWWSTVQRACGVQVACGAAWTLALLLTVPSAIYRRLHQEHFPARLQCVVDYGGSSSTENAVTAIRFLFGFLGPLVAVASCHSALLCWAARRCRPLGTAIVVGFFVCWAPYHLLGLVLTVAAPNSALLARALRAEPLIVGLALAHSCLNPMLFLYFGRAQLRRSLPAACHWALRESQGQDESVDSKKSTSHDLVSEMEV
T11 sequence (P55899 other isoform, or with tags, fused parts or gaps limits assumed, chain 1 of 2): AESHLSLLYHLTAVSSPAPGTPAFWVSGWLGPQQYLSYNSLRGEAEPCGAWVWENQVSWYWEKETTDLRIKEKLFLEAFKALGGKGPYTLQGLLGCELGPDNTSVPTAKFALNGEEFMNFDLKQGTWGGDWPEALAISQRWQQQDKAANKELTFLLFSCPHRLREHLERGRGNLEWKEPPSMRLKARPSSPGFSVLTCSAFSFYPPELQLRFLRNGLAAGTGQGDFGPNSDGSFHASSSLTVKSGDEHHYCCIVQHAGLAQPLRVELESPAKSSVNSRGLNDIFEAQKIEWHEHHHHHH
T11 sequence (P16213 21-119 limits assumed, chain 2 of 2): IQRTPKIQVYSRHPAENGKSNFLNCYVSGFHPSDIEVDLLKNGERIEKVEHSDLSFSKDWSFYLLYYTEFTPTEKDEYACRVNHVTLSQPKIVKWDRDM
T5 sequence (P08637 other isoform, or with tags, fused parts or gaps): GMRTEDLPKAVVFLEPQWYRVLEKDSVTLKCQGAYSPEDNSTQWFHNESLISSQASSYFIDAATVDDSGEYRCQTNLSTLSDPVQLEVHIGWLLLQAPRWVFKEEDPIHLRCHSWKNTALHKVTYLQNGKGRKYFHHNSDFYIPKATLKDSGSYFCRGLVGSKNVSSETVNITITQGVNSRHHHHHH

B1: MAB #2 (antibody, human IgG1, lambda)
heavy: EVQLVESGGGLVKPGGSLRLSCAASGFTFSSYAMHWVRQAPGKGLEWVGRIKSVAQGGTTDYAAHVKGRFTISRDDSKNTLYLQMNSLKTEDTAVYYCARVSHSTFDVWGQGTLVTVSSASTKGPSVFPLAPSSKSTSGGTAALGCLVKDYFPEPVTVSWNSGALTSGVHTFPAVLQSSGLYSLSSVVTVPSSSLGTQTYICNVNHKPSNTKVDKRVEPKSCDKTHTCPPCPAPEAEGAPSVFLFPPKPKDTLMISRTPEVTCVVVDVSHEDPEVKFNWYVDGVEVHNAKTKPREEQYNSTYRVVSVLTVLHQDWLNGKEYKCKVSNKALPSSIEKTISKAKGQPREPQVYTLPPSREEMTKNQVSLTCLVKGFYPSDIAVEWESNGQPENNYKTTPPVLDSDGSFFLYSKLTVDKSRWQQGNVFSCSVMHEALHNHYTQKSLSLSPGK
light: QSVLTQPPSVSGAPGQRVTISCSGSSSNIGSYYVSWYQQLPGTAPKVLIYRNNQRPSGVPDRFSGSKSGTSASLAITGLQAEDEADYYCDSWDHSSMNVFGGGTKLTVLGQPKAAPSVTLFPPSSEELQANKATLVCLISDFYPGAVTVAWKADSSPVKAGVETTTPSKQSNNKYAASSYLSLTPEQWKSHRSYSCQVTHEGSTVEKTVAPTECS
notes: lambda 1 light chain
In the case of B1, the “Activity of human C5a EC50 (nM) in presence of 50 nM anti-C5aR antibody, β-arrestin recruitment” value in experiment [1] was found to be 37 nM. For the same molecule, the “x fold reduced activity of C5a in presence of anti-C5aR antibody (50 nM)” value in experiment [1] came out at 12.8 fold. Also, the EC50 in [2] amounted to 1.2 nM; in [3] it was 1.4 nM; in [4] it was 5.4 nM. Moreover, the binding result in [5] was “no binding”; in experiment [6], “no binding (tested: 300 nM)”; in experiment [7], “no binding (tested: 300 nM)”; in experiment [8], “no binding (tested: 300 nM)”. Also, the Kd in experiment [9] was determined as 29 nM; in [10] it was 140 nM; in experiment [11], 36 nM. The koff in experiment [9] worked out at 0.00127 s⁻¹; in [10], 0.0189 s⁻¹. Also, the kon was determined as 43300 M⁻¹ s⁻¹ in [9] and 138000 M⁻¹ s⁻¹ in experiment [10].

B2: MAB #1 (antibody, human IgG1, lambda)
heavy: B1 heavy with V54K, H103F
light: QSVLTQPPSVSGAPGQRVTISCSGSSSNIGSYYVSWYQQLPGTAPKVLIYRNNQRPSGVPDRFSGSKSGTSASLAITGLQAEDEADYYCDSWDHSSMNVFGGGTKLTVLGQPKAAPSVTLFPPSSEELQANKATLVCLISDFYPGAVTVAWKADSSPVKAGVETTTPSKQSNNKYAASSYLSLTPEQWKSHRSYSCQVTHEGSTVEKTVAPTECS
notes: lambda 1 light chain, VH3-15 framework
For B2, the “Activity of human C5a EC50 (nM) in presence of 50 nM anti-C5aR antibody, β-arrestin recruitment” value in [1] was found to be 37 nM. Further, in experiment [1], the “x fold reduced activity of C5a in presence of anti-C5aR antibody (50 nM)” value was 12.8 fold. For the same molecule, the EC50 in [2] was determined as 1.7 nM; in experiment [3] it was 1.1 nM; in experiment [4], 6 nM. The binding result in experiment [5] is listed as “no binding”; in experiment [6], “no binding (tested: 300 nM)”; in [7], “no binding (tested: 300 nM)”; in experiment [8], “no binding (tested: 300 nM)”. Also, the Kd was 36 nM in [9], 63 nM in experiment [10] and 9 nM in experiment [11]. Further, the koff in [9] is 0.00179 s⁻¹; in [10], 0.0108 s⁻¹. For the same molecule, the figures for the kon in [9] and in experiment [10] were 50100 M⁻¹ s⁻¹ and 171000 M⁻¹ s⁻¹, respectively.
